Numbered stars: 1 amine (or outer) side, 2 acyl side, 3 side chain; on linkers, the order of the positions; unused ones are H or OH. Bridge positions count the residues as written; N and C are the ends. Side chains are listed from the residue outwards. Ends that are not written are not given here. * marks the point of attachment. C20 diacid = O=C(O)CCCCCCCCCCCCCCCCCCC(=O)*; γGlu = O=C(O)[C@H](CCC(=O)[*:2])N[*:1]; AEEA = NCCOCCOCC(=O)O
T1: human calcitonin receptor (human, UniProt P30988 25-474)
T1 construct: whole, on cells; Membranes prepared from a stably transfected BHK cell line (Assay VII); also called hCTR; hCT
T1 sequence (looked up): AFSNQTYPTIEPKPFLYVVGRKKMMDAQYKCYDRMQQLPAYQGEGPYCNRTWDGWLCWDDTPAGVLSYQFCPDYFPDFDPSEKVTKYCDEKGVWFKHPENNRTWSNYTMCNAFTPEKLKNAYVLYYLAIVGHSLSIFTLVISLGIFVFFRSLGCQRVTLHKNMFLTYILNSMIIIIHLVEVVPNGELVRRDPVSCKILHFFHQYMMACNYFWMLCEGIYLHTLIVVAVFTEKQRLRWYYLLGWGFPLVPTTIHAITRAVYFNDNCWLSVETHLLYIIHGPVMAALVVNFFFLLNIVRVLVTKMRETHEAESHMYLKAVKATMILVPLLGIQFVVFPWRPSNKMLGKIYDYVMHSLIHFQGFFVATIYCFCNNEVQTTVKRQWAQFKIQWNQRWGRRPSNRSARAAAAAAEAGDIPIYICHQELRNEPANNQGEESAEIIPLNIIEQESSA

T2: rat amylin receptor (rat calcitonin receptor + rat RAMP 3) (rat, UniProt P32214 25-516; Q9JJ73 23-147)
T2 construct: whole, on cells; Membranes prepared from transiently transfected BHK tk'ts 13 cells (Assay VI); also called rAmylin-R; rAmylin
T2 sequence (looked up) 1: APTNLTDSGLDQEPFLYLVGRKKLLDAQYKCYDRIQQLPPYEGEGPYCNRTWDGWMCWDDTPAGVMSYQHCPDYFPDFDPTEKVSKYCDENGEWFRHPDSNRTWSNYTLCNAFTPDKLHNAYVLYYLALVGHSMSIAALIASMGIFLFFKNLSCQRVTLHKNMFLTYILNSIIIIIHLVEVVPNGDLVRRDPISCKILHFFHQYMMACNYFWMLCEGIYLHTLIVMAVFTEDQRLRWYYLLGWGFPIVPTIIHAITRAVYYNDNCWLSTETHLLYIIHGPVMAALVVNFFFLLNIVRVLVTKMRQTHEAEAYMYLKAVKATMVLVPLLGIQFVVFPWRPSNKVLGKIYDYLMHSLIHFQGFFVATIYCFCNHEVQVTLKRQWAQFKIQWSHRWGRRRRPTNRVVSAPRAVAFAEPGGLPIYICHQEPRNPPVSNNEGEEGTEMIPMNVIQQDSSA
T2 sequence (looked up) 2: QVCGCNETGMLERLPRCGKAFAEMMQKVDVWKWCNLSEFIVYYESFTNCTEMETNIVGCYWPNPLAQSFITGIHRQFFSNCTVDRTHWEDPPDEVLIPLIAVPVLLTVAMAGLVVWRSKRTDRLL

T3: rat calcitonin receptor (rat, UniProt P32214 25-516)
T3 construct: whole, on cells; Membranes prepared from transiently transfected BHK tk'ts 13 cells (Assay VIII); also called rCTR; rCT
T3 sequence (looked up): T2 sequence (looked up) 1

B1: N^ε1-[2-[2-[2-[[(4S)-4-carboxy-4-(19-carboxynonadecanoylamino)butanoyl]amino]ethoxy]ethoxy]acetyl]-[Arg14,Arg17,Pro21,Pro27,Pro31]-h-amylin (peptide)
peptide: K([AEEA-γGlu-C20 diacid])CNTATCATQRLARFLRHSSPNFGAIPSSTPVGSNTY-NH2
modifications: disulfide 2-7; N-terminus assumed
SMILES: CC[C@H](C)[C@H](NC(=O)[C@H](C)NC(=O)CNC(=O)[C@H](Cc1ccccc1)NC(=O)[C@H](CC(N)=O)NC(=O)[C@@H]1CCCN1C(=O)[C@H](CO)NC(=O)[C@H](CO)NC(=O)[C@H](Cc1c[nH]cn1)NC(=O)[C@H](CCCNC(=N)N)NC(=O)[C@H](CC(C)C)NC(=O)[C@H](Cc1ccccc1)NC(=O)[C@H](CCCNC(=N)N)NC(=O)[C@H](C)NC(=O)[C@H](CC(C)C)NC(=O)[C@H](CCCNC(=N)N)NC(=O)[C@H](CCC(N)=O)NC(=O)[C@@H](NC(=O)[C@H](C)NC(=O)[C@@H]1CSSC[C@H](NC(=O)[C@@H](N)CCCCNC(=O)COCCOCCNC(=O)CC[C@H](NC(=O)CCCCCCCCCCCCCCCCCCC(=O)O)C(=O)O)C(=O)N[C@@H](CC(N)=O)C(=O)N[C@@H]([C@@H](C)O)C(=O)N[C@@H](C)C(=O)N[C@@H]([C@@H](C)O)C(=O)N1)[C@@H](C)O)C(=O)N1CCC[C@H]1C(=O)N[C@@H](CO)C(=O)N[C@@H](CO)C(=O)N[C@H](C(=O)N1CCC[C@H]1C(=O)N[C@H](C(=O)NCC(=O)N[C@@H](CO)C(=O)N[C@@H](CC(N)=O)C(=O)N[C@H](C(=O)N[C@@H](Cc1ccc(O)cc1)C(N)=O)[C@@H](C)O)C(C)C)[C@@H](C)O
notes: Analogue of human amylin; also called compound 64
B2: N^ε1-[2-[2-[2-[[(4S)-4-carboxy-4-(19-carboxynonadecanoylamino)butanoyl]amino]ethoxy]ethoxy]acetyl]-[Arg14,Arg17,Pro21,Pro27]-h-amylin (peptide)
peptide: K([AEEA-γGlu-C20 diacid])CNTATCATQRLARFLRHSSPNFGAIPSSTNVGSNTY-NH2
modifications: disulfide 2-7; N-terminus assumed
SMILES: CC[C@H](C)[C@H](NC(=O)[C@H](C)NC(=O)CNC(=O)[C@H](Cc1ccccc1)NC(=O)[C@H](CC(N)=O)NC(=O)[C@@H]1CCCN1C(=O)[C@H](CO)NC(=O)[C@H](CO)NC(=O)[C@H](Cc1c[nH]cn1)NC(=O)[C@H](CCCNC(=N)N)NC(=O)[C@H](CC(C)C)NC(=O)[C@H](Cc1ccccc1)NC(=O)[C@H](CCCNC(=N)N)NC(=O)[C@H](C)NC(=O)[C@H](CC(C)C)NC(=O)[C@H](CCCNC(=N)N)NC(=O)[C@H](CCC(N)=O)NC(=O)[C@@H](NC(=O)[C@H](C)NC(=O)[C@@H]1CSSC[C@H](NC(=O)[C@@H](N)CCCCNC(=O)COCCOCCNC(=O)CC[C@H](NC(=O)CCCCCCCCCCCCCCCCCCC(=O)O)C(=O)O)C(=O)N[C@@H](CC(N)=O)C(=O)N[C@@H]([C@@H](C)O)C(=O)N[C@@H](C)C(=O)N[C@@H]([C@@H](C)O)C(=O)N1)[C@@H](C)O)C(=O)N1CCC[C@H]1C(=O)N[C@@H](CO)C(=O)N[C@@H](CO)C(=O)N[C@H](C(=O)N[C@@H](CC(N)=O)C(=O)N[C@H](C(=O)NCC(=O)N[C@@H](CO)C(=O)N[C@@H](CC(N)=O)C(=O)N[C@H](C(=O)N[C@@H](Cc1ccc(O)cc1)C(N)=O)[C@@H](C)O)C(C)C)[C@@H](C)O
notes: Analogue of human amylin; also called compound 82
B3: N^ε1-[2-[2-[2-[[(4S)-4-carboxy-4-(19-carboxynonadecanoylamino)butanoyl]amino]ethoxy]ethoxy]acetyl]-[Arg17,Pro21,Pro27,Arg34]-h-amylin (peptide)
peptide: K([AEEA-γGlu-C20 diacid])CNTATCATQRLANFLRHSSPNFGAIPSSTNVGRNTY-NH2
modifications: disulfide 2-7; N-terminus assumed
SMILES: CC[C@H](C)[C@H](NC(=O)[C@H](C)NC(=O)CNC(=O)[C@H](Cc1ccccc1)NC(=O)[C@H](CC(N)=O)NC(=O)[C@@H]1CCCN1C(=O)[C@H](CO)NC(=O)[C@H](CO)NC(=O)[C@H](Cc1c[nH]cn1)NC(=O)[C@H](CCCNC(=N)N)NC(=O)[C@H](CC(C)C)NC(=O)[C@H](Cc1ccccc1)NC(=O)[C@H](CC(N)=O)NC(=O)[C@H](C)NC(=O)[C@H](CC(C)C)NC(=O)[C@H](CCCNC(=N)N)NC(=O)[C@H](CCC(N)=O)NC(=O)[C@@H](NC(=O)[C@H](C)NC(=O)[C@@H]1CSSC[C@H](NC(=O)[C@@H](N)CCCCNC(=O)COCCOCCNC(=O)CC[C@H](NC(=O)CCCCCCCCCCCCCCCCCCC(=O)O)C(=O)O)C(=O)N[C@@H](CC(N)=O)C(=O)N[C@@H]([C@@H](C)O)C(=O)N[C@@H](C)C(=O)N[C@@H]([C@@H](C)O)C(=O)N1)[C@@H](C)O)C(=O)N1CCC[C@H]1C(=O)N[C@@H](CO)C(=O)N[C@@H](CO)C(=O)N[C@H](C(=O)N[C@@H](CC(N)=O)C(=O)N[C@H](C(=O)NCC(=O)N[C@@H](CCCNC(=N)N)C(=O)N[C@@H](CC(N)=O)C(=O)N[C@H](C(=O)N[C@@H](Cc1ccc(O)cc1)C(N)=O)[C@@H](C)O)C(C)C)[C@@H](C)O
notes: Analogue of human amylin; also called compound 78

target: T1, human calcitonin receptor; test: ratio of binding IC50s: human calcitonin receptor / human amylin receptor (reference)
Experimental: The resulting pellet was resuspended, homogenized and centrifuged (20.000 rpm, 15 min) in a buffer containing 20 mM Na-HEPES and 0.1 mM EDTA (pH 7.4, buffer 2). The resulting pellet was resuspended in buffer 2 and protein concentration was measured (BCA protein Assay, Pierce). The homogenate was kept cold during the whole procedure. The membranes were kept at −80° C. until use. The assay was performed in a 384 well Optiplate (PerkinElmer) in a total volume of 40 ul. Membranes were mixed with SPA beads. Final concentration of membranes 35 ng/μL final and SPA beads was 0.05 mg/well. Test-compounds were dissolved in DMSO and further diluted in assay buffer (50 mM Hepes, pH 7.4, 1 mM CaCl2, 5 mM MgCl₂, 0.1% OA and 0.02% Tween20). […] The final mixture was incubated with shaking at 400 rpm for 120 min at 25° C. prior to centrifugation (1500 rpm, 10 min). Samples were analyzed on TopCounter™ (Packard). The IC₅₀ was calculated using (one site binding competition analysis) GraphPad Prism5 as a measure of receptor affinity.
Membranes were prepared in the following way; the cells were rinsed with PBS and incubated with Versene for approximately 5 min before harvesting. The cells were flushed with PBS and the cell-suspension was centrifuged for 5 min at 1000 rpm. Cells were homogenized (Ultrathurrax) in a buffer containing 20 mM Na-HEPES and 10 mM EDTA (pH 7.4) and centrifuged at 20.000 rpm for 15 min. The resulting pellet was resuspended, homogenized and centrifuged (20.000 rpm, 15 min) in a buffer containing 20 mM Na-HEPES and 0.1 mM EDTA (pH 7.4, buffer 2). The resulting pellet was resuspended in buffer 2 and protein concentration was measured (BCA protein Assay, Pierce). The homogenate was kept cold during the whole procedure. The membranes were kept at −80° C. until use. Assay was performed in a 384 well Optiplate (PerkinElmer) in a total volume of 40 ul. Membranes were mixed with SPA beads.

| Ratio hCT/hAmylin binding | Binder |
| --- | --- |
| 126 | B1 |
| 140 | B2 |
| 60.7 | B3 |

target: T2, rat amylin receptor (rat calcitonin …); test: SPA competition vs 125I-rat amylin, membranes of BHK cells with rat calcitonin receptor + rat RAMP3 (Assay VI)
Experimental: The binding assay was performed using scintillation proximity assay (SPA) beads (RPNQ0001) from PerkinElmer and cell membranes from the Amylin 3(a)/CRE-luc cells (as described in Assay (II)) were used. Membranes were prepared in the following way; the cells were rinsed with PBS and incubated with Versene for approximately 5 min before harvesting. The cells were flushed with PBS and the cell-suspension was centrifuged for 5 min at 1000 rpm. Cells were homogenized (ultrathurrax) in a buffer containing 20 mM Na-HEPES and 10 mM EDTA (pH 7.4) and centrifuged at 20.000 rpm for 15 min. The resulting pellet was resuspended, homogenized and centrifuged (20.000 rpm, 15 min) in a buffer containing 20 mM Na-HEPES and 0.1 mM EDTA (pH 7.4, buffer 2). The resulting pellet was resuspended in buffer 2 and protein concentration was measured (BCA protein Assay, Pierce). The homogenate was kept cold during the whole procedure. The membranes were kept at −80° C. until use. The assay was performed in a 384 well Optiplate (PerkinElmer) in a total volume of 40 ul. Membranes were mixed with SPA beads. Final concentration of membranes 35 ng/μL final and SPA beads was 0.05 mg/well. Test-compounds were dissolved in DMSO and further diluted in assay buffer (50 mM Hepes, pH 7.4, 1 mM CaCl2, 5 mM MgCl₂, 0.1% OA and 0.02% Tween20). […] The final mixture was incubated with shaking at 400 rpm for 120 min at 25° C. prior to centrifugation (1500 rpm, 10 min). Samples were analyzed on TopCounter™ (Packard). The IC₅₀ was calculated using (one site binding competition analysis) GraphPad Prism5 as a measure of receptor affinity.
Cells were grown in DMEM with 10% FBS and 1% Pen/Strep. Approximately 48 hours after transfection, the cells were harvested and membranes were prepared.

| IC50 | Binder |
| --- | --- |
| 1.97 nM | B1 |
| 1.64 nM | B2 |
| 1.3 nM | B3 |

target: T3, rat calcitonin receptor; test: ratio of binding IC50s: rat calcitonin receptor / rat amylin receptor (reference)

| Ratio rCT/rAmylin binding | Binder |
| --- | --- |
| 64.7 | B1 |
| 87 | B2 |
| 69.9 | B3 |

target: T3, rat calcitonin receptor; test: SPA competition vs 125I-calcitonin, membranes of BHK cells with rat calcitonin receptor (Assay VIII)

| IC50 | Binder |
| --- | --- |
| 128 nM | B1 |
| 143 nM | B2 |
| 90.6 nM | B3 |

From US20140087995A1 (published 2014)
